Assays:
[1] = target: T1, Human MUC1 (full length), on cells (human, UniProt P15941 24-1255); test: cell-based or functional assay
[2] = target: T1, Human MUC1 (full length), on cells; test: flow cytometry on live ZR-75 cells (native MUC1)

T1 sequence (P15941 24-1255 limits assumed): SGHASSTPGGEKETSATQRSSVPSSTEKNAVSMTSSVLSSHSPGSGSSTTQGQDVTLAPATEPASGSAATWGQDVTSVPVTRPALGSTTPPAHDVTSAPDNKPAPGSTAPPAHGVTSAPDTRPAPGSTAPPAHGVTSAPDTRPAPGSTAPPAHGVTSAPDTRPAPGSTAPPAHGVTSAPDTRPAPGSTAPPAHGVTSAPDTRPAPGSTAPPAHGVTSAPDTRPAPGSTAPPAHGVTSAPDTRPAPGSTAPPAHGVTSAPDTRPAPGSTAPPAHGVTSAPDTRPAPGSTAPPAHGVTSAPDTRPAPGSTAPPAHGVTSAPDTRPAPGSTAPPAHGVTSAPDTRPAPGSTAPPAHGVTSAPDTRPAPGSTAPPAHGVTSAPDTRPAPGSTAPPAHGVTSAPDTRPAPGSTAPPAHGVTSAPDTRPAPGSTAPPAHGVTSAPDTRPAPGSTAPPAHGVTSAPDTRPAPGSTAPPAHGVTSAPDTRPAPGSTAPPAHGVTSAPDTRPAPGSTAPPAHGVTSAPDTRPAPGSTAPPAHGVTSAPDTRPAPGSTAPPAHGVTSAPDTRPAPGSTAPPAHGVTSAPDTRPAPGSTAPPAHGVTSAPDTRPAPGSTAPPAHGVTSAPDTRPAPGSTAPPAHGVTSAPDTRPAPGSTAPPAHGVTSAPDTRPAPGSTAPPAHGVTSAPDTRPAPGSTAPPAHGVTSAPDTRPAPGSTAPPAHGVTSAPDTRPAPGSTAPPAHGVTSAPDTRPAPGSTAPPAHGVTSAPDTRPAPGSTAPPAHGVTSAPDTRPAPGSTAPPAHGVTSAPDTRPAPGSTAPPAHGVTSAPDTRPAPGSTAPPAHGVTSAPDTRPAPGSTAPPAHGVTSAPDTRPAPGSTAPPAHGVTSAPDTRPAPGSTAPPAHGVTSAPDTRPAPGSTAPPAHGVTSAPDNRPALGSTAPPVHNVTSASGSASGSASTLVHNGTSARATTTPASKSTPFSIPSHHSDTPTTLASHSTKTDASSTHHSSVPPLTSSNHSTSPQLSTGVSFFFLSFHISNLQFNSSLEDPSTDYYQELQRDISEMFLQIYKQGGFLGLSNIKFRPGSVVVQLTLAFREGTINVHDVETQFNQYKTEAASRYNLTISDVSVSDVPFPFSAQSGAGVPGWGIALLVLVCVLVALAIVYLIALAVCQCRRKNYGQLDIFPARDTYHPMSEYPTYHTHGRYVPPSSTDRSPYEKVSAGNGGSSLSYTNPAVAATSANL

B1: MUC1 3D1-hFc-AF (antibody, IgG1, V domains shown)
VH: EVQLVQSGAEVKKPGESLKISCKGSGYAFSNFWMNWVRQMPGKGLEWMGQIYPGDGDTNYNGKFKGQVTISADKSISTAYLQWSSLKASDTAMYYCARSYYRSAWFAYWGQGTLVTVSL
VL: EIVLTQSPDFQSVTPKEKVTITCRASQSIGTSIHWYQQKPDQSPKLLIKYASESISGVPSRFSGSGSGTDFTLTINSLEAEDAATYYCQQSNNWPLTFGQGTKVEIK
modifications: afucosylated Fc glycan (-AF)
Cell lysis activity EC50, T-47D/nanoluc in human whole blood [1]: 8.85 nM | Cell lysis activity Emax, T-47D/nanoluc in human whole blood [1]: 10.6%

B2: HuVH-HMFG1-AF (antibody, IgG1, V domains shown)
VH: QVQLVQSGAEVKKPGASVKVSCKASGYTFSAYWIEWVRQAPGKGLEWVGEILPGSNNSRYNEKFKGRVTVTRDTSTNTAYMELSSLRSEDTAVYYCARSYDFAWFAYWGQGTLVTVSS
VL: DIQMTQSPSSLSASVGDRVTITCKSSQSLLYSSNQKIYLAWYQQKPGKAPKLLIYWASTRESGVPSRFSGSGSGTDFTFTISSLQPEDIATYYCQQYYRYPRTFGQGTKVEIK
modifications: afucosylated Fc glycan (-AF)
Cell lysis activity Emax, T-47D/nanoluc in human whole blood [1]: 3.59%

B3: huBG219P-Bz0 (antibody, IgG1, V domains shown)
VH: EVQLLESGGGLVQPGGSLRLSCAASGFTFNDYIMSWVRQAPGKGLEWVATVSSGGDNTYYPDSVKGRFTISRDNSKNTLYLQMNSLRAEDTAVYYCTRYGGLGAMDYWGQGTLVTVSS
VL: DIQMTQSPSSLSASVGERVTITCRASGNIHNYLTWYQQKPGKSPKLLVYNAKTLADGVPSRFSGSGSGPDYTLTISSLQPEDFATYYCQHFWSVPYTFGQGTKLEIK
notes: Humanized
EC50 [2]: 20.9 nM

B4: Gatipotuzumab-AF (antibody, IgG1, V domains shown)
VH: EVQLVESGGGLVQPGGSMRLSCVASGFPFSNYWMNWVRQAPGKGLEWVGEIRLKSNNYTTHYAESVKGRFTISRDDSKNSLYLQMNSLKTEDTAVYYCTRHYYFDYWGQGTLVTVSS
VL: DIVMTQSPLSNPVTPGEPASISCRSSKSLLHSNGITYFFWYLQKPGQSPQLLIYQMSNLASGVPDRFSGSGSGTDFTLRISRVEAEDVGVYYCAQNLELPPTFGQGTKVEIK
modifications: afucosylated Fc glycan (-AF)
Cell lysis activity EC50, T-47D/nanoluc in human whole blood [1]: 2.46 nM | Cell lysis activity Emax, T-47D/nanoluc in human whole blood [1]: 10.2%

B5: Clivatuzumab-AF (antibody, IgG1, V domains shown)
VH: QVQLQQSGAEVKKPGASVKVSCEASGYTFPSYVLHWVKQAPGQGLEWIGYINPYNDGTQYNEKFKGKATLTRDTSINTAYMELSRLRSDDTAVYYCARGFGGSYGFAYWGQGTLVTVSS
VL: DIQLTQSPSSLSASVGDRVTMTCSASSSVSSSYLYWYQQKPGKAPKLWIYSTSNLASGVPARFSGSGSGTDFTLTISSLQPEDSASYFCHQWNRYPYTFGGGTRLEIK
modifications: afucosylated Fc glycan (-AF)
Cell lysis activity Emax, T-47D/nanoluc in human whole blood [1]: 2.31%

— US20250075002A1 (BEIGENE SWITZERLAND, published 2025)
